In publication PMC9482650, “Quantitative fragmentomics allow affinity mapping of interactomes” (Nature Communications, 2022):

molecular target: T1, TIAM2, Q8IVF5; test: holdup assay; design: key: below the threshold = too weak to quantify, mostly under pKd 3.1 to 4; conditions: plain residues with an end cap or a label only (N-terminal biotin on a linker: ado-ado)
T1 sequence (Q8IVF5 885-986, limits assumed, looked up): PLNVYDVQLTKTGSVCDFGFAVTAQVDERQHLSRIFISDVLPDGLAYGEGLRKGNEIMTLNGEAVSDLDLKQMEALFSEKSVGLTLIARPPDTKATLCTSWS

Binder | pKd
KAEEKPPSKV [SCN4B, Q8IWT1] | below the threshold
KKTPVSRSHL [SLC22A3, O75751] | below the threshold

molecular target: T2, FRMPD1, Q5SYB0; test: holdup assay; design: key: below the threshold = too weak to quantify, mostly under pKd 3.1 to 4; conditions: plain residues with an end cap or a label only (N-terminal biotin on a linker: ado-ado)
T2 sequence (Q5SYB0 52-145, limits assumed, looked up): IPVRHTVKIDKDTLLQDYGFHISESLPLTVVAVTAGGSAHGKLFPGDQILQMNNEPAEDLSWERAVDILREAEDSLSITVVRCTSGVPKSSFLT

Binder | pKd
KAEEKPPSKV [SCN4B, Q8IWT1] | below the threshold
KKTPVSRSHL [SLC22A3, O75751] | below the threshold

molecular target: T3, CARD11, Q9BXL7; test: holdup assay; design: key: below the threshold = too weak to quantify, mostly under pKd 3.1 to 4; conditions: plain residues with an end cap or a label only (N-terminal biotin on a linker: ado-ado)
T3 sequence (Q9BXL7 662-765, limits assumed, looked up): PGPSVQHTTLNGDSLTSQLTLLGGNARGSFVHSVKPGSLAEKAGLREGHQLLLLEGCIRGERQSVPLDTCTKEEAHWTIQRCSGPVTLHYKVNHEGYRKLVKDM

Binder | pKd
KAEEKPPSKV [SCN4B, Q8IWT1] | below the threshold
KKTPVSRSHL [SLC22A3, O75751] | below the threshold

molecular target: T4, NHERF3_3, Q5T2W1; test: holdup assay; design: key: below the threshold = too weak to quantify, mostly under pKd 3.1 to 4; conditions: plain residues with an end cap or a label only (N-terminal biotin on a linker: ado-ado)
T4 sequence (Q5T2W1 238-333, limits assumed, looked up): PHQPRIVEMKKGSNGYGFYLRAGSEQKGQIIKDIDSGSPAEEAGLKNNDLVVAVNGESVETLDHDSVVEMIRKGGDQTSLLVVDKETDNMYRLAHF

Binder | pKd
KAEEKPPSKV [SCN4B, Q8IWT1] | below the threshold
KKTPVSRSHL [SLC22A3, O75751] | below the threshold

molecular target: TJP1_2, Q07157; test: holdup assay; design: key: below the threshold = too weak to quantify, mostly under pKd 3.1 to 4; conditions: plain residues with an end cap or a label only (N-terminal biotin on a linker: ado-ado)
Sequence (Q07157 181-274): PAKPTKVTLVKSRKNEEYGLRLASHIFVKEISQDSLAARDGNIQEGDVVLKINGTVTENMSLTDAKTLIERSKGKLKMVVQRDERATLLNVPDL

Binder | pKd
KAEEKPPSKV [SCN4B, Q8IWT1] | below the threshold
KKTPVSRSHL [SLC22A3, O75751] | below the threshold

molecular target: Inadl_3, Q8NI35; test: holdup assay; design: key: below the threshold = too weak to quantify, mostly under pKd 3.1 to 4; conditions: plain residues with an end cap or a label only (N-terminal biotin on a linker: ado-ado)
Sequence (Q8NI35 359-469): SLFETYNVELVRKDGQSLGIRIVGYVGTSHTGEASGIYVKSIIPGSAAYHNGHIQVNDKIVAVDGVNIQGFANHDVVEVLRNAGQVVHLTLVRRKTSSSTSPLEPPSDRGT

Binder | pKd
KAEEKPPSKV [SCN4B, Q8IWT1] | below the threshold
KKTPVSRSHL [SLC22A3, O75751] | below the threshold

molecular target: T5, LNX2_2, Q8N448; test: holdup assay; design: key: below the threshold = too weak to quantify, mostly under pKd 3.1 to 4; conditions: plain residues with an end cap or a label only (N-terminal biotin on a linker: ado-ado)
T5 sequence (Q8N448 334-432, limits assumed, looked up): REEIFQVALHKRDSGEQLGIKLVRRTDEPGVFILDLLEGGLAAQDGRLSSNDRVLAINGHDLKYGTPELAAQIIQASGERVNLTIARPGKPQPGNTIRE

Binder | pKd
KAEEKPPSKV [SCN4B, Q8IWT1] | below the threshold
KKTPVSRSHL [SLC22A3, O75751] | below the threshold

molecular target: GRIP2_3, Q9C0E4; test: holdup assay; design: key: below the threshold = too weak to quantify, mostly under pKd 3.1 to 4; conditions: plain residues with an end cap or a label only (N-terminal biotin on a linker: ado-ado)
Sequence (Q9C0E4 238-339): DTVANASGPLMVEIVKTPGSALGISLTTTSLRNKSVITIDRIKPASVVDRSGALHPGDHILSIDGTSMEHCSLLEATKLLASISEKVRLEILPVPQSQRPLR

Binder | pKd
KAEEKPPSKV [SCN4B, Q8IWT1] | below the threshold
KKTPVSRSHL [SLC22A3, O75751] | below the threshold

molecular target: T6, APBA2_2, Q99767; test: holdup assay; design: key: below the threshold = too weak to quantify, mostly under pKd 3.1 to 4; conditions: plain residues with an end cap or a label only (N-terminal biotin on a linker: ado-ado)
T6 sequence (Q99767 654-744, limits assumed, looked up): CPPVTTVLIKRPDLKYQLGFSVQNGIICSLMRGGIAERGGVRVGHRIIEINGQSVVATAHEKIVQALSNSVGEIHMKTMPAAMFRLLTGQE

Binder | pKd
KAEEKPPSKV [SCN4B, Q8IWT1] | below the threshold
KKTPVSRSHL [SLC22A3, O75751] | below the threshold

molecular target: T7, SNTG1, Q9NSN8; test: holdup assay; design: key: below the threshold = too weak to quantify, mostly under pKd 3.1 to 4; conditions: plain residues with an end cap or a label only (N-terminal biotin on a linker: ado-ado)
T7 sequence (Q9NSN8 52-150, limits assumed, looked up): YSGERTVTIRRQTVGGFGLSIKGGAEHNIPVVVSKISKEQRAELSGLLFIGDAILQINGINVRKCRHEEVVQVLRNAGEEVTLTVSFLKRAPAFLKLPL

Binder | pKd
KAEEKPPSKV [SCN4B, Q8IWT1] | below the threshold
KKTPVSRSHL [SLC22A3, O75751] | below the threshold

molecular target: T8, MPP7, Q5T2T1; test: holdup assay; design: key: below the threshold = too weak to quantify, mostly under pKd 3.1 to 4; conditions: plain residues with an end cap or a label only (N-terminal biotin on a linker: ado-ado)
T8 sequence (Q5T2T1 134-230, limits assumed, looked up): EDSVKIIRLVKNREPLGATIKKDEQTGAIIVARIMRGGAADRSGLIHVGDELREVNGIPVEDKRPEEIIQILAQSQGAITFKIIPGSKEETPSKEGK

Binder | pKd
KAEEKPPSKV [SCN4B, Q8IWT1] | below the threshold
KKTPVSRSHL [SLC22A3, O75751] | below the threshold

molecular target: T9, DVL3, Q92997; test: holdup assay; design: key: below the threshold = too weak to quantify, mostly under pKd 3.1 to 4; conditions: plain residues with an end cap or a label only (N-terminal biotin on a linker: ado-ado)
T9 sequence (Q92997 244-331, limits assumed, looked up): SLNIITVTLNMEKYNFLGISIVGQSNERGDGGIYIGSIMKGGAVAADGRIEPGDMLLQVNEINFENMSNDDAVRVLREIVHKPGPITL

Binder | pKd
KAEEKPPSKV [SCN4B, Q8IWT1] | below the threshold
KKTPVSRSHL [SLC22A3, O75751] | below the threshold

molecular target: LIMK2, P53671; test: holdup assay; design: key: below the threshold = too weak to quantify, mostly under pKd 3.1 to 4; conditions: plain residues with an end cap or a label only (N-terminal biotin on a linker: ado-ado)
Sequence (P53671 143-248): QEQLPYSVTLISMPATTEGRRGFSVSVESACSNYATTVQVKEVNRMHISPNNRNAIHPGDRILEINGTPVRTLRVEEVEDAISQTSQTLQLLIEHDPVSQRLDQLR

Binder | pKd
KAEEKPPSKV [SCN4B, Q8IWT1] | below the threshold
KKTPVSRSHL [SLC22A3, O75751] | below the threshold

molecular target: ARHGEF12, Q9NZN5-2; test: holdup assay; design: key: below the threshold = too weak to quantify, mostly under pKd 3.1 to 4; conditions: plain residues with an end cap or a label only (N-terminal biotin on a linker: ado-ado)
Sequence (Q9NZN5 other isoform, or with tags, fused parts or gaps): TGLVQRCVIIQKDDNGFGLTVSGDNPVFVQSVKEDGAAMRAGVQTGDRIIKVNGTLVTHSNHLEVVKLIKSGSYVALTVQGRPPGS

Binder | pKd
KAEEKPPSKV [SCN4B, Q8IWT1] | below the threshold
KKTPVSRSHL [SLC22A3, O75751] | 4.2

molecular target: T10, GRIP1_7, Q9Y3R0; test: holdup assay; design: key: below the threshold = too weak to quantify, mostly under pKd 3.1 to 4; conditions: plain residues with an end cap or a label only (N-terminal biotin on a linker: ado-ado)
T10 sequence (Q9Y3R0 999-1096, limits assumed, looked up): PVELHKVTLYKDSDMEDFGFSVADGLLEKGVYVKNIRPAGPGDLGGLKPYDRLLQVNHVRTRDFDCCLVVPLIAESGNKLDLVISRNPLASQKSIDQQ

Binder | pKd
KAEEKPPSKV [SCN4B, Q8IWT1] | below the threshold
KKTPVSRSHL [SLC22A3, O75751] | below the threshold

molecular target: AHNAK1, Q09666; test: holdup assay; design: key: below the threshold = too weak to quantify, mostly under pKd 3.1 to 4; conditions: plain residues with an end cap or a label only (N-terminal biotin on a linker: ado-ado)
Sequence (Q09666 4-100): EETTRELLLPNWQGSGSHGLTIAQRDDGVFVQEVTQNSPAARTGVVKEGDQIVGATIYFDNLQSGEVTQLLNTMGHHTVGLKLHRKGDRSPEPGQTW

Binder | pKd
KAEEKPPSKV [SCN4B, Q8IWT1] | below the threshold
KKTPVSRSHL [SLC22A3, O75751] | below the threshold

molecular target: T11, PDZD7_3, Q9H5P4; test: holdup assay; design: key: below the threshold = too weak to quantify, mostly under pKd 3.1 to 4; conditions: plain residues with an end cap or a label only (N-terminal biotin on a linker: ado-ado)
T11 sequence (Q9H5P4 857-944, limits assumed, looked up): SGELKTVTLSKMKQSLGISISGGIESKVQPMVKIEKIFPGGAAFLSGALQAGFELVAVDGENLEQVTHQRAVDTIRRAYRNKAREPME

Binder | pKd
KAEEKPPSKV [SCN4B, Q8IWT1] | below the threshold
KKTPVSRSHL [SLC22A3, O75751] | 3.91

molecular target: T12, APBA2_1, Q99767; test: holdup assay; design: key: below the threshold = too weak to quantify, mostly under pKd 3.1 to 4; conditions: plain residues with an end cap or a label only (N-terminal biotin on a linker: ado-ado)
T12 sequence (Q99767 563-664, limits assumed, looked up): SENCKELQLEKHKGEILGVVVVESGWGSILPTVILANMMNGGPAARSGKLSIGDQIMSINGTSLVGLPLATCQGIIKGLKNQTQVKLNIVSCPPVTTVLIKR

Binder | pKd
KAEEKPPSKV [SCN4B, Q8IWT1] | below the threshold
KKTPVSRSHL [SLC22A3, O75751] | below the threshold

molecular target: SCRIB_1, Q14160; test: holdup assay; design: key: below the threshold = too weak to quantify, mostly under pKd 3.1 to 4; conditions: plain residues with an end cap or a label only (N-terminal biotin on a linker: ado-ado)
Sequence (Q14160 718-814): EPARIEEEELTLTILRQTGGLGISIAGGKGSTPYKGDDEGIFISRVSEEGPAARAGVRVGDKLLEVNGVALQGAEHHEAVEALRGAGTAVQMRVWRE

Binder | pKd
KAEEKPPSKV [SCN4B, Q8IWT1] | below the threshold
KKTPVSRSHL [SLC22A3, O75751] | 3.91

molecular target: T13, HTRA4, P83105; test: holdup assay; design: key: below the threshold = too weak to quantify, mostly under pKd 3.1 to 4; conditions: plain residues with an end cap or a label only (N-terminal biotin on a linker: ado-ado)
T13 sequence (P83105 378-476, limits assumed, looked up): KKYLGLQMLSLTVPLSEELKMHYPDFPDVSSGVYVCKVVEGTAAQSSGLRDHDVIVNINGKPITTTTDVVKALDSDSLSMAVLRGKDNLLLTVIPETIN

Binder | pKd
KAEEKPPSKV [SCN4B, Q8IWT1] | 3.93
KKTPVSRSHL [SLC22A3, O75751] | 3.81

molecular target: T14, MPDZ_12, O75970; test: holdup assay; design: key: below the threshold = too weak to quantify, mostly under pKd 3.1 to 4; conditions: plain residues with an end cap or a label only (N-terminal biotin on a linker: ado-ado)
T14 sequence (O75970 1857-1958, limits assumed, looked up): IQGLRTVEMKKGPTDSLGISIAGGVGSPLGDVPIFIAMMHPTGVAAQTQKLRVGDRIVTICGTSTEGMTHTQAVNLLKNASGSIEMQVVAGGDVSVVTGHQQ

Binder | pKd
KAEEKPPSKV [SCN4B, Q8IWT1] | 3.49
KKTPVSRSHL [SLC22A3, O75751] | below the threshold

molecular target: MAST2, Q6P0Q8; test: holdup assay; design: key: below the threshold = too weak to quantify, mostly under pKd 3.1 to 4; conditions: plain residues with an end cap or a label only (N-terminal biotin on a linker: ado-ado)
Sequence (Q6P0Q8 1099-1202): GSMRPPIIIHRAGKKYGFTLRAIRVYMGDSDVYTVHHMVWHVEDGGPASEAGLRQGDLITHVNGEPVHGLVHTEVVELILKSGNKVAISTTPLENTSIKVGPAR

Binder | pKd
KAEEKPPSKV [SCN4B, Q8IWT1] | below the threshold
KKTPVSRSHL [SLC22A3, O75751] | 4.69

molecular target: T15, MPP2, Q14168; test: holdup assay; design: key: below the threshold = too weak to quantify, mostly under pKd 3.1 to 4; conditions: plain residues with an end cap or a label only (N-terminal biotin on a linker: ado-ado)
T15 sequence (Q14168 180-250, limits assumed, looked up): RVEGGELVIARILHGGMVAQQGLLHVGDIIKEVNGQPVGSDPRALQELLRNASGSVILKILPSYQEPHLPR

Binder | pKd
KAEEKPPSKV [SCN4B, Q8IWT1] | below the threshold
KKTPVSRSHL [SLC22A3, O75751] | below the threshold
